In assay [1] the target is mouse protocadherin-15 EC1+2 R113G (mouse) (UniProt Q99PJ1). Description: ITC.
The target of assay [2] is mouse protocadherin-15 EC1+2 I22A (mouse, UniProt Q99PJ1-18 27-259, I22A). Description: ITC.
Assay [3] deals with T1, mouse protocadherin-15 EC1+2 (mouse, UniProt Q99PJ1-18 27-259). Kind of assay: ITC.
For assay [4], the target named is T1, mouse protocadherin-15 EC1+2. Description: crystal structure.

In assay [1], “mouse cadherin-23 EC1+2 (from UniProt Q99PF4 24-228) (domain or fragment)” showed a Kd of more than 20 µM.

B1: mouse cadherin-23 EC1+2 (domain or fragment)
chain: MQVNRLPFFTNHFFDTYLLISEDTPVGSSVTQLLARDMDNDPLVFGVSGEEASRFFAVEPDTGVVWLRQPLDRETKSEFTVEFSVSDHQGVITRKVNIQVGDVNDNAPTFHNQPYSVRIPENTPVGTPIFIVNATDPDLGAGGSVLYSFQPPSPFFAIDSARGIVTVIQELDYEVTQAYQLTVNATDQDKTRPLSTLANLAIIITD
In turn, B1 registered a dissociation constant (Kd) in assay [2] of more than 100 µM. For the same molecule, in assay [3], the dissociation constant (Kd) turned out to be 2.9 µM, the dH amounted to 7.08 kcal/mol and the “stoichiometry N” value worked out at 0.88.

B2: mouse cadherin-23 EC1+2 S47P (domain or fragment)
chain: MQVNRLPFFTNHFFDTYLLISEDTPVGSSVTQLLARDMDNDPLVFGVPGEEASRFFAVEPDTGVVWLRQPLDRETKSEFTVEFSVSDHQGVITRKVNIQVGDVNDNAPTFHNQPYSVRIPENTPVGTPIFIVNATDPDLGAGGSVLYSFQPPSPFFAIDSARGIVTVIQELDYEVTQAYQLTVNATDQDKTRPLSTLANLAIIITD
Consider B2, for which the binding result in assay [4] is “binds”.

B3: mouse cadherin-23 EC1+2 L145G (domain or fragment)
chain: MQVNRLPFFTNHFFDTYLLISEDTPVGSSVTQLLARDMDNDPLVFGVSGEEASRFFAVEPDTGVVWLRQPLDRETKSEFTVEFSVSDHQGVITRKVNIQVGDVNDNAPTFHNQPYSVRIPENTPVGTPIFIVNATDPDLGAGGSVGYSFQPPSPFFAIDSARGIVTVIQELDYEVTQAYQLTVNATDQDKTRPLSTLANLAIIITD
In the case of B3, the Kd in assay [3] was more than 30 µM.
